Data on three molecules can be found in patent US20110104788A1 (published 2011).

A word on the Kd: it is the constant that tells how readily two partners part at equilibrium. What is called koff is the rate constant with which the complex falls apart. Lower therefore signals a long-lived complex. For orientation: kon means the rate constant with which the complex forms. Read a low kon as slower complex formation.

First the molecules themselves.
B1: Factor X-binding protein (X-bp) from Deinagkistrodon acutus (other)
chain 1: DCSSGWSSYEGHCYKVFKQSKTWADAESFCTKQVNGGHLVSIESSGEADFVGQLIAQKIKSAKIHVWIGLRAQNKEKQCSIEWSDGSSISYENWIEEESKKCLGVHIETGFHKWENFYCEQQDPFVCEA
chain 2: DCPSDWSSYEGHCYKPFNEPKNWADAENFCTQQHTGSHLVSFQSTEEADFVVKLAFQTFDYGIFWMGLSKIWNQCNWQWSNAAMLKYTDWAEESYCVYFKSTNNKWRSITCRMIANFVCEFQA
B2: mouse coagulation factor X (enzyme)
chain: ANSFFEEFKKGNLERECMEEICSYEEVREIFEDDEKTKEYWTKYKDGDQCESSPCQNQGACRDGIGGYTCTCSEGFEGKNCELFVRKLCRLDNGDCDQFCREEQNSVVCSCASGYFLGNDGKSCISTAPFPCGKITTGRRKRSVALNTSDSELDLEDALLDEDFLSPTENPIELLNLNETQPERSSDDLVRIVGGRECKDGECPWQALLINEDNEGFCGGTILNEFYILTAAHCLHQARRFKVRVGDRNTEKEEGNEMVHEVDVVIKHNKFQRDTYDYDIAVLRLKTPITFRMNVAPACLPQKDWAESTLMTQKTGIVSGFGRTHEKGRQSNILKMLEVPYVDRNTCKLSTSFSITQNMFCAGYEAKLEDACQGDSGGPHVTRFKNTYYVTGIVSWGEGCARKGKYGIYTKVTTFLKWIDRSMKARVGPTAETPRTAGPPN
B3: human FXa mutant containing the C-terminal EGF2-SP domain (EGF2-SP FXa) (enzyme)
chain: TRKLCSLDNGDCDQFCHEEQNSVVCSCARGYTLADNGKACIPTGPYPCGKQTLERIVGGQECKDGECPWQALLINEENEGFCGGTILSEFYILTAAHCLYQAKRFKVRVGDRNTEQEEGGEAVHEVEVVIKHNRFTKETYDFDIAVLRLKTPITFRMNVAPACLPERDWAESTLMTQKTGIVSGFGRTHEKGRQSTRLKMLEVPYVDRNSCKLSSSFIITQNMFCAGYDTKQEDACQGDSGGPHVTRFKDTYFVTGIVSWGEGCARKGKYGIYTKVTAFLKWIDRSMKTRGLPKAKSHAPEVITSSPLK
modifications: biotinylated with biotin-FPRCK
notes: domain: EGF2-SP; also called EGF2-SP fragment; rFX EGF2-SP

Assay [1] concerns the target T1, human coagulation factor X (FX), full-length zymogen (human, UniProt P00742 41-488, genetically encoded glutamic acid residues of the Gla domain converted to γ-carboxyglutamic acid).
T1 construct: mature; also called human FX; hFX
Nature of the assay: SPR (Biacore T100); human FX immobilised on CM5 chip, inhibitor injected; heterogeneous ligand model.

Assay [2] has as its target B2. Kind of assay: SPR (Biacore T100); mouse FX immobilised on CM5 chip, inhibitor injected; heterogeneous ligand model.
For assay [3], the target named is Ixolaris, 12 kDa two-Kunitz domain protein isolated from tick salivary gland (tick, UniProt Q964Q0 27-165).
Assay [4] addresses T2, adenovirus serotype 5 (Ad5) virus particle (human adenovirus serotype 5, UniProt P04133 1-952).
T2 construct: also called Ad5CMVlacZ (control virus with unmodified hexon); intact virus Ad5
Kind of assay: SPR; biotinylated EGF2-SP FXa coupled to SA chip, Ad5 injected. (In general: In SPR one partner is held on a chip, and binding of the other changes the refractive index at the surface.)

On to B1, for which, in assay [1], the dissociation constant (Kd) turned out to be 0.118 nM, the koff was 0.00023 s⁻¹ and the on-rate (kon) stood at 1.96e+06 M⁻¹ s⁻¹. In addition, in assay [2], the Kd came out at 1.04 nM, the koff worked out at 0.00031 s⁻¹ and the kon came to 296000 M⁻¹ s⁻¹.

Consider B2, for which, in assay [3], binding was characterised by a dissociation constant (Kd) of 0.000515 nM, the koff was found to be 8.1e-07 s⁻¹ and the association rate constant (kon) was 1.57e+06 M⁻¹ s⁻¹.

With B3, in assay [4], the binding result is on record as “no binding”.
